Laboratory results published in patent US20240018513A1, “SYNTHETIC INTRONS FOR TARGETED GENE EXPRESSION” (FRED HUTCHINSON CANCER CENTER, priority 2020, published 2024).

Assays:
WT K562 cells = assay: Mini-screen: pooled synthetic intron mini-library in HSV-TK, GCV treatment, full-length intron sequencing from genomic DNA; assay type: cell-based; conditions: genotype WT (SF3B1+/+) K562; GCV 100 ug/mL; day 6; vector hPGK-PuroR-P2A-HSV-TK
Excerpt: (§1) Therefore, a massively parallel splicing assay was developed to map and functionally interrogate key sequence features within the synthetic intron. First, a pilot mini-library of eight synthetic introns was synthesized, seven of which were much shorter (lengths of 100-158 nt) than the parent synthetic intron (synMTERFD3i1-250), and each with one or more perturbations to potentially critical features (FIG. 2E). This mini-library was cloned into HSV-TK, introduced into WT or SF3B1-mutant K562 cells with a lentiviral vector at a low multiplicity of infection, and treated with GCV. Relative depletion of each construct was measured by high-throughput sequencing of the entire introns from genomic DNA after six days of treatment (TABLE 1).
(§2) Each synthetic intron used in the mini-library was ordered individually as a gBlock (Integrated DNA Technologies), consisting of the desired intron flanked by homology arms for cloning (5′ arm: […] (SEQ ID NO:158); 3′ arm: […] (SEQ ID NO:159; TABLE 3). The gBlocks were then mixed in equal proportions before being cloned into hPGK-PuroR-P2A-HSV-TK using a previously published strategy for pooled cloning (Thomas, J. D. et al. RNA isoform screens uncover the essentiality and tumor-suppressor activity of ultraconserved poison exons. Nature genetics 52, 84-94 (2020), incorporated herein by reference in its entirety). This intron mix was then amplified using NEBNext High Fidelity Ready Mix (New England Biolabs) and purified using 1.8×AMPure XP SPRI beads (Beckman Coulter). The backbone for the library was amplified using Q5 polymerase (New England Biolabs). The library was transformed and amplified using Endura ElectroCompetent Cells (Lucigen, 60242-2) and large LB plates. The library was maxiprepped using a Macherey-Nagel MaxiPrep kit (Thermo Fisher Scientific, Cat 740414.10).
(§3) WT or SF3B1-mutant K562 cells were infected with lentivirus encoding the mini-library at an MOI of 0.3 and untreated or treated with GCV (100 ug/mL) for 6 days. Genomic DNA was collected at day 6 and the resulting Illumina libraries were sequenced with 2×150 bp reads (Illumina MiSeq). Depletion/enrichment of each construct was estimated as follows. For each sample, reads were normalized to the total reads mapped. The relative fraction of reads mapping to each intron was then estimated by dividing the numbers of normalized reads mapped to an intron by the total reads mapped in the sample. The standard deviation was calculated using the sample proportion P for each intron (σ=sqrt [P(1−P)/n]). A fold-change was calculated for each intron by dividing the proportion of the intron in the treated GCV samples by the fraction of the intron in the untreated samples. Error propagation was used to estimate the standard deviation. The final relative fold-changes were computed by normalizing fold-changes such that the fold-change of synMTERFD3i1-250 in the pilot screen was identical to the experimentally measured fold-change in a single-construct experiment (FIG. 2C, 100 μg/mL of GCV).

SF3B1-mutant K562 cells = assay: as above; assay type: cell-based; conditions: genotype K700E (SF3B1+/K700E) K562; GCV 100 ug/mL; day 6; vector hPGK-PuroR-P2A-HSV-TK
Excerpt: as §1, §2, §3

Row | Molecule | fold-change (estimated fold-change in intron abundance in gDNA) (WT K562 cells) | fold-change (estimated fold-change in intron abundance in gDNA) (SF3B1-mutant K562 cells)
1 | intron_9600: 158 nt synthetic intron, insertion 89_TACTAACA consensus branchpoint; SEQ ID NO 62/70 (nucleic acid) DNA 1: GTGAGTCGCCCCCTTCCTCTGCTCCGAGAGGGAAATGGGAATTAGGGTGGTGGCAGAGCCCAAAGAGGCCTTGTAGGCCATGGTAAGGCTACTAACAATTTCTATGTTTTATTTTACTTTGTCTTTATCCTAAAATGCCATTGGCAAGTTTATTGCAG DNA 2: GTGAGTCGCCCCCTTCCTCTGCTCCGAGAGGGAAATGGGAATTAGGGTGGTGGCAGAGCCCAAAGAGGCCTTGTAGGCCATGGTAAGGCTACTAACAATTTCTATGTTTTATTTTACTTTGTCTTTATCCTAAAATGCCATTGGCAAGTTTATTGCAG | 1.112 | 0.2356
2 | intron_13121: 150 nt control synthetic intron, GT_to_CC + AG_to_CC splice site mutations; SEQ ID NO 56/64 (nucleic acid) DNA 1: CCGAGTCGCCCCCTTCCTCTGCTCCGAGAGGGAAATGGGAATTAGGGTGGTGGCAGAGCCCAAAGAGGCCTTGTAGGCCATGGTAAGGCATTTCTATGTTTTATTTTACTTTGTCTTTATCCTAAAATGCCATTGGCAAGTTTATTGCCC DNA 2: CCGAGTCGCCCCCTTCCTCTGCTCCGAGAGGGAAATGGGAATTAGGGTGGTGGCAGAGCCCAAAGAGGCCTTGTAGGCCATGGTAAGGCATTTCTATGTTTTATTTTACTTTGTCTTTATCCTAAAATGCCATTGGCAAGTTTATTGCCC | 1.226 | 0.8961
3 | intron_2790: 150 nt synthetic intron, mutation 148_AtoG (canonical 3′ss); SEQ ID NO 59/67 (nucleic acid) DNA 1: GTGAGTCGCCCCCTTCCTCTGCTCCGAGAGGGAAATGGGAATTAGGGTGGTGGCAGAGCCCAAAGAGGCCTTGTAGGCCATGGTAAGGCATTTCTATGTTTTATTTTACTTTGTCTTTATCCTAAAATGCCATTGGCAAGTTTATTGCGG DNA 2: GTGAGTCGCCCCCTTCCTCTGCTCCGAGAGGGAAATGGGAATTAGGGTGGTGGCAGAGCCCAAAGAGGCCTTGTAGGCCATGGTAAGGCATTTCTATGTTTTATTTTACTTTGTCTTTATCCTAAAATGCCATTGGCAAGTTTATTGCGG | 1.042 | 0.7611
4 | intron_8499: 150 nt synthetic intron, 89/95/102/107 AtoG branchpoint ablation; SEQ ID NO 61/69 (nucleic acid) DNA 1: GTGAGTCGCCCCCTTCCTCTGCTCCGAGAGGGAAATGGGAATTAGGGTGGTGGCAGAGCCCAAAGAGGCCTTGTAGGCCATGGTAAGGCGTTTCTGTGTTTTGTTTTGCTTTGTCTTTATCCTAAAATGCCATTGGCAAGTTTATTGCAG DNA 2: GTGAGTCGCCCCCTTCCTCTGCTCCGAGAGGGAAATGGGAATTAGGGTGGTGGCAGAGCCCAAAGAGGCCTTGTAGGCCATGGTAAGGCGTTTCTGTGTTTTGTTTTGCTTTGTCTTTATCCTAAAATGCCATTGGCAAGTTTATTGCAG | 1.15 | 0.2767
5 | intron_4095: 150 nt synthetic intron, 138_AtoC-139_GtoC (cryptic 3′ss at −11 removed); SEQ ID NO 60/68 (nucleic acid) DNA 1: GTGAGTCGCCCCCTTCCTCTGCTCCGAGAGGGAAATGGGAATTAGGGTGGTGGCAGAGCCCAAAGAGGCCTTGTAGGCCATGGTAAGGCATTTCTATGTTTTATTTTACTTTGTCTTTATCCTAAAATGCCATTGGCACCTTTATTGCAG DNA 2: GTGAGTCGCCCCCTTCCTCTGCTCCGAGAGGGAAATGGGAATTAGGGTGGTGGCAGAGCCCAAAGAGGCCTTGTAGGCCATGGTAAGGCATTTCTATGTTTTATTTTACTTTGTCTTTATCCTAAAATGCCATTGGCACCTTTATTGCAG | 0.3305 | 0.2637
6 | intron_2258: 100 nt MTERFD3 intron 1-derived synthetic intron, deletion 15to65; SEQ ID NO 57/65 (nucleic acid, expressed or natural sequence) DNA 1: GTGAGTCGCCCCCTTAGGCCTTGTAGGCCATGGTAAGGCATTTCTATGTTTTATTTTACTTTGTCTTTATCCTAAAATGCCATTGGCAAGTTTATTGCAG DNA 2: GTGAGTCGCCCCCTTAGGCCTTGTAGGCCATGGTAAGGCATTTCTATGTTTTATTTTACTTTGTCTTTATCCTAAAATGCCATTGGCAAGTTTATTGCAG | 1.279 | 0.4996
